Results published in US20230416410A1 (ZOETIS SERVICES, published 2023).
One block for each binder: values may come before it.

Key:
[1] = molecular target: complement component C1q (in bovine complement preserved serum) (bovine, UniProt Q5E9E3 23-244; Q2KIV9 23-247); assay: cell-based or functional assay
[2] = molecular target: T1, recombinant bovine FcgR1 (bovine, biotin on the BAP tag (BirA)); assay: SPR Biacore, biotinylated receptor on SA sensor, pH 7.4, 15 C
T1 construct: also called bFcgR1; bFcgRI
Description: (§1) A Biacore SPR binding assay was designed to test the affinity of bovine IgG subclasses to bFcgR1, bFcgR2 and bFcgR3. All reported KD's were measured by Biacore (Cytiva, Marlborough, MA, USA) using series S SA sensor. Biotinylated-bovine FcgR1, R2 and R3 were captured on the sensor surface using a modified SA capture method to reach the desired surface density. 10 mM HEPES, 150 mM NaCl, 3 mM EDTA, 0.05% v/v surfactant P20, pH7.4 buffer was used as the running and titration buffer. Various concentrations of bovine CTLA4-Fc fusions or mAbs were titrated and flowed over the receptor surface and affinities were determined using Biacore T200 Evaluation software (Cytiva, Marlborough, MA, USA) with 1:1 binding model. The method of double referencing has been applied where the reference flow cell was subtracted from the flow cell containing immobilized receptors and blank runs containing buffer only were subtracted out from all runs. Flow cells were regenerated using 10 mM Glycine pH1.5. Runs were performed at 15° C.
(§2) Biacore methods for bFcgR1, R2, and R3 were performed as described in Examples above. […] Although the two allotypes have different KDs for bFcgR2 and bFcgR3, both wildtype allotypes do bind. All of the mutations, bIgG3Win, bIgG3WinSAS, bIgG3SAS and bIgG3SAP for both the a and b allotypes knocked down binding to bFcgR1, bFcgR2 and bFcgR3 to negligible affinities. Thus, for knocking out receptor binding, the two allotypes compare similarly.

[3] = molecular target: T2, recombinant bovine FcgR2 (bovine, UniProt Q28110 43-225, limits assumed, biotin on the BAP tag (BirA)); assay: as above
T2 construct: also called bFcgR2; bFcgRII
T2 sequence: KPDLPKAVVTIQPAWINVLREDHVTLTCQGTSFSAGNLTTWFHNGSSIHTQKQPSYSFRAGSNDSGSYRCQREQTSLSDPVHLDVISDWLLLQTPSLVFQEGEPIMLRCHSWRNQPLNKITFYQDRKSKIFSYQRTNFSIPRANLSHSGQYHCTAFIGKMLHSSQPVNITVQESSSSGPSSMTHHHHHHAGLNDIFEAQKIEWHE
Description: as §1, §2

[4] = molecular target: T3, recombinant bovine FcgR3 (bovine, UniProt P79107 17-208, limits assumed, biotin on the BAP tag (BirA)); assay: as above
T3 construct: also called bFcgR3; bFcgRIII
T3 sequence: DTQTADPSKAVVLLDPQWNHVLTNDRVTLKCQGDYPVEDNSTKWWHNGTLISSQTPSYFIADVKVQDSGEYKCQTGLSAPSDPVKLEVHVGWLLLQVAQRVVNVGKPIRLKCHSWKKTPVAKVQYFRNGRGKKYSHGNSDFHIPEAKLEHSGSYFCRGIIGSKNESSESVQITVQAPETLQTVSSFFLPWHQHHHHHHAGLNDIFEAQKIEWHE
Description: as §1, §2

[5] = molecular target: T4, CTLA4bG2a (canine; bovine, UniProt Q9XSI1 36-161, limits assumed); assay: SPR Biacore, bFcg2R amine-coupled on CM5, pH 7.4, 15 C
T4 construct: No linker; also called bIgG2a wildtype (CTLA4 fusion); CTLA4 Fc bIgG2a wildtype

[6] = molecular target: T5, CTLA4bG2b (canine; bovine, UniProt Q9XSI1 36-161, limits assumed); assay: as above
T5 construct: No linker; also called bIgG2b wildtype (CTLA4 fusion); CTLA4 Fc bIgG2b wildtype
T5 sequence: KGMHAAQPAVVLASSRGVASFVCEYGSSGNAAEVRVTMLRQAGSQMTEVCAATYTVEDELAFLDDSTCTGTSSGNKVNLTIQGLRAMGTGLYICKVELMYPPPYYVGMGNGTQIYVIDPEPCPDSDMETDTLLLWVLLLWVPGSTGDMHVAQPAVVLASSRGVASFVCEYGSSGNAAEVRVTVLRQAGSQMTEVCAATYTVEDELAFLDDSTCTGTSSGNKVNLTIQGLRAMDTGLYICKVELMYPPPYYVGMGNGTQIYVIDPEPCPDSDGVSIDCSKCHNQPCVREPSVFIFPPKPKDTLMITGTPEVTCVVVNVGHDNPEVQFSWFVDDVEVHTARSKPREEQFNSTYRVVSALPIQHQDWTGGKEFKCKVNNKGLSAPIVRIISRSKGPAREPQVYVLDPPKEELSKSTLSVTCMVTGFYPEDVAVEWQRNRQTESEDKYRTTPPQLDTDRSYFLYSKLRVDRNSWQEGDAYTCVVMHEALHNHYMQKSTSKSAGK

complement component C1q (in bovine complement preserved serum), sequence (Q5E9E3 23-244, chain 1 of 2): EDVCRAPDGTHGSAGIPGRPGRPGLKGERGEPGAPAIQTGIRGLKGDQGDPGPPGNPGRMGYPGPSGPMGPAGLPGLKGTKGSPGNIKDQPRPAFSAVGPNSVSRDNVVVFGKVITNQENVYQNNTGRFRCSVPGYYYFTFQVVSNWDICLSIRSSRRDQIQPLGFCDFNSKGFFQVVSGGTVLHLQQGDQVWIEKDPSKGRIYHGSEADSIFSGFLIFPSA
complement component C1q (in bovine complement preserved serum), sequence (Q2KIV9 23-247, chain 2 of 2): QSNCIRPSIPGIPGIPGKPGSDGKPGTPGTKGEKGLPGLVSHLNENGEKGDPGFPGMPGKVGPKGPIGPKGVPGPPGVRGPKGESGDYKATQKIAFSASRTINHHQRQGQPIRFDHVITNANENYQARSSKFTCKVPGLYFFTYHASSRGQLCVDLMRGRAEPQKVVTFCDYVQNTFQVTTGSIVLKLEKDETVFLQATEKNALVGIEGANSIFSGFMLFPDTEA

CDC EC50 Value [1]: 0.028 µg/mL
Kd [2]: 12.5 nM
Kd [3]: 706 nM
Kd [4]: 49.6 nM
B1: CTLA4 Fc bIgG3b (Fc fusion)
chain: DMHVAQPAVVLASSRGVASFVCEYGSSGNAAEVRVTVLRQAGSQMTEVCAATYTVEDELAFLDDSTCTGTSSGNKVNLTIQGLRAMDTGLYICKVELMYPPPYYVGMGNGTQIYVIDPEPCPDSDTARRPVPTTPKTTIPPGKPTTQESEVEKTPCQCSKCPEPLGGLSVFIFPPKPKDTLTISGTPEVTCVVVDVGQDDPEVQFSWFVDDVEVHTARTKPREEQFNSTYRVVSALRIQHQDWLQGKEFKCKVNNKGLPAPIVRTISRTKGQAREPQVYVLAPPREELSKSTLSLTCLITGFYPEEIDVEWQRNGQPESEDKYHTTAPQLDADGSYFLYSRLRVNKSSWQEGDHYTCAVMHEALRNHYKEKSISRSPGK
notes: No linker; also called bIgG3b wildtype; CTLA4 Fc bIgG3b wildtype

Kd [5]: 41.7 nM
Kd [6]: 31.4 nM
B2: recombinant bovine Fcg2R (receptor)
chain: GTFPKPIIWAEPSSVVPLGSSVTILCQGPPNTKSFSLNKEGDSTPWNIHPSLEPWDKANFFISNVREQQAGRYHCSHFIGVNWSEPSEPLDLLVAGEEPAGRLRDRPSLSVRPSPSVAPGENVTLLCQSGNRTDTFLLSKEGAAHRPLRLRSQDQDGWYQAEFSLSPVTSAHGGTYRCYRSLSTNPYLLSQPSEPLALLVADYTMQNLIRMGLAASVLLLLGILLCQARHDHGGAREAARS
modifications: biotin on the BAP tag (BirA)
